In the RNAGym collection of RNA variant scans (doi:10.7554/elife.90254):

B1: LINE1-full (parent)
chain: UACGUAGGUGGUUUUCCCCUGAUAGUGCUAAGGGGGCCUGGAAGUUUGGACUGGGCAGAGCUCAACACAGCGUGGCAAAGUGGCUGUGGCUAGACUGCCUCUCUGGAUUCCUCGUCACUCAGCAGGGCAUCUCUGAGAGAAAUGCC

Variants of: B1
Assay: self-cleavage, relative activity (ratio to wild type); higher = more cleavage; in vitro, sequencing; the parent is a self-cleaving ribozyme

UACGUAGGUGGUUUUCCCCUGAUAGUGCUAAGGGGGCCUGGAAGUUUGGACUGAGCAGAGCUCAACACAGCGUGGCAAAGUGGCUGAGGCUAGACUGCCUCUCUGGAUUCCUCGUCACUCAGCAGGGCAUCUCUGAGAGAAAUGCC [G54A U87A] and UACGUAGGUGGUUUUCCCCUGAUAGUGCUAAGGGGGCCUGGAAGUUUGGACUGGGCAGGGCUCAACACAGCGUGGCAAAGUGGCUGUGGCUAGACUGCCUCUCUGAAUUCCUCGUCACUCAGCAGGGCAUCUCUGAGAGAAAUGCC [A59G G106A] are the same in self-cleavage: 0.06 for the first, 0.06 for the second.

Going from UACGUAGGUGGUUUUCCCCUGAUAGUGCUAAGGGGGCCUGGAAGUUUGGACUGGGCAGAGCUCAACACAGCGUGGCAAAGUGGCUGUGGCUAGACUGCCUCUCUGGAUUCCACGUCACUCAGCAGGGCACCUCUGAGAGAAAUGCC [U112A U130C] to UACGUAGGUGGUUUUCCCCUGAUAGUGCUAAGGGGGCAUGGAAGUUUGGACUGGGCAGAGCUCAACACAGCGUGGCAAAGUGGCUGUGGCUAGACUACCUCUCUGGAUUCCUCGUCACUCAGCAGGGCAUCUCUGAGAGAAAUGCC [C38A G97A], the self-cleavage falls from 1.6 to 0.05.

Compared with UACGUAGGUGGUUUUCCCCUGAUAGUGCUAAGGGGGCCUGGAAGUUUGGACUGGGCAGAGCUCAACACAGCGUGGCAAAGUGGCUGUGGCUAGUCUGCCUCUCUGGAUUCCUCGUCACUCAGCAGGGCAUCUCUGAGAGAUAUGCC [A94U A141U], UACGUAGGUGGUUUUCCCCUGAUAGUGCUAAGGGGGCCCGGAAGUUUGGACUGGGCAGAGCUCAACACAGCGUGGCAAAGUGGCUGUGGCUAGACUGCCUCUCUGUAUUCCUCGUCACUCAGCAGGGCAUCUCUGAGAGAAAUGCC [U39C G106U] is lower in self-cleavage: 0.42 for the first, 0.4 for the second.

First: UAAGUAGGUGGUUUUCCCCUGAUAGUGCUAGGGGGGCCUGGAAGUUUGGACUGGGCAGAGCUCAACACAGCGUGGCAAAGUGGCUGUGGCUAGACUGCCUCUCUGGAUUCCUCGUCACUCAGCAGGGCAUCUCUGAGAGAAAUGCC [C3A A31G]
Second: AACGUAGGUGGUUUUCCCCUGAUAGUGCUAAGGGGGCCUGGAAGUUUGGACUGGGCAGAGCUCAACACAGCGUGGCAAAGUGGCUGUGGCUAGACUGCCUCUCUGGAUUCCACGUCACUCAGCAGGGCAUCUCUGAGAGAAAUGCC [U1A U112A]
The self-cleavage of the first is lower: 0.87 for the first, 1.2 for the second.

First: UACGUGGGUGGUUUUCCCCUGAUAGUGCUAAGGGGGCCUGGAAGUUUGGACUGGGCAGAGCUCAACACAGCGUGGCAAAGUGGCUGUGGCUAGACUGCCUCUCUGGAUUCCUCGUCACUCAGCAGGGCAUCUCUGAGAGAAAUGUC [A6G C145U]
Second: UACGUAGGUGGUUUUCCCCUGAUAGUGCUAAGGGGGCCUGGAAGUUUGGACUGGGCAGAGCUCAUCACAGCGUGGCAAAGUGGCUGUGGCUAGACUGCCUCUCUGGAUUCCUCGUCGCUCAGCAGGGCAUCUCUGAGAGAAAUGCC [A65U A117G]
The self-cleavage of the first is higher: 1.64 for the first, 0.24 for the second.

Compared with UACGUAGGUGGUUUUCCCCUGAUAGUGCUAAGGGUGCCUGGAAGUUUGGACUGGGCAGAGCUCAACACAGCGUGGCAAAGUGGCUGUGGCCAGACUGCCUCUCUGGAUUCCUCGUCACUCAGCAGGGCAUCUCUGAGAGAAAUGCC [G35U U91C], UACGUAGGUGGUUUUCCCCCGAUAGUGCUAAGGGGGCCUGGAAGUUUGGACUGGGCAGAGCUCAACACAGCGUGGCAAAGUGGCUGUGGCUAGACUGCCUCUCUGGAUUCCUCGUCUCUCAGCAGGGCAUCUCUGAGAGAAAUGCC [U20C A117U] is higher in self-cleavage: 0.52 for the first, 1.61 for the second.

Going from UACGUAGGUGGUUUUCCCUUGAUAGUGCUAAGGGGGCCUGGAAGUUUGGACUGGGCAGGGCUCAACACAGCGUGGCAAAGUGGCUGUGGCUAGACUGCCUCUCUGGAUUCCUCGUCACUCAGCAGGGCAUCUCUGAGAGAAAUGCC [C19U A59G] to UACGUAGGUGGUUUUCCCCUGAUAGUGCUAAGGGGGCCUGGAAGUUUGGACUGGGCAGAGCUCAACACAGCGUGGCAAAGUGGCUGUGGCUAGACUGCCUCUCUGGAUUCCUCGUCACUCAGCAGGGCCUCUCUGAGAGCAAUGCC [A129C A140C], the self-cleavage rises from 0.03 to 1.29.

Going from UACGUAGGUGGUUUUCCCCUGAUAGUGCUAAGGGGGCCUGGAAGUUUGGACUGGGCAUAGCUCAACACAGCGUGGCAAAGUGGCUGUGGCUAGACUGCCUCUCUGGAUUCCUCGUCACUCAGCAGGGCAUCUCUGAGAGGAAUGCC [G58U A140G] to UACGUAGGUGGUUUUCCCCUGAUAGUGCUAAGGGGGCCUGGAAGUUUGGACUGGGCAGAGCUCAACACAGCGUGGCAAAGUGGCUGUGGCUAGACUGCCUCUCUGGAUUCCUCGUCACCCAGCAGGGCAUCUCUGAGAGAAAUGUC [U119C C145U], the self-cleavage rises from 0.05 to 1.25.

Going from UACGUAGGUGGUUUUCCCCUGAUAGUGCUAAGGGGGCCUGGAAGUUUGGACUGGGCAGAGCUCAACACAGCGUGGCAAAGUGGCUGAGGCUAGACUGCCUCUCUGGAUUCCUCGUCUCUCAGCAGGGCAUCUCUGAGAGAAAUGCC [U87A A117U] to UACGUAGGUGGUUUUCCCCUGAUUGUGCUAAGGGGGCCUGGAAGUUUGGACUGGGCAGAGCUCAACACAGCGUGGCAAAGUGGCUGUGGCUAGACUGCCUCUCAGGAUUCCUCGUCACUCAGCAGGGCAUCUCUGAGAGAAAUGCC [A24U U104A], the self-cleavage rises from 0.04 to 0.65.

Going from UACGUAGGUGGUUUUCCACUGAUAGUGCUAAGGGGGCCUGGAAGUUUGGACUGGGCAGAGCUCAACACAGCGUGGCAAAGUGGCUGUGGCUAGACUGCCUCUCUGGAUACCUCGUCACUCAGCAGGGCAUCUCUGAGAGAAAUGCC [C18A U109A] to UACGUAGGUGGUUUUCCCCUGAUAGUGCUAAGGGGGCCUGGAAGUUUGGACUGGGCAGGGCUCAACACAGCGUGGCAAAGUGGCUGUGGCUAGACUGCCUCUCUGGAUUCCUCGUCCCUCAGCAGGGCAUCUCUGAGAGAAAUGCC [A59G A117C], the self-cleavage falls from 1.71 to 0.2.
